# Positions count from the first letter of the chain named.
# B1: CTLA-4 variant Var 3 (SEQ ID 7), monomeric form with serine at position 121, translated in vitro (receptor)
# chain: AMHVAQPAVVLASSRGIASFVCEYAPPGKATEVRVTVLRQADSQVTEVWAATYMMGNESTFPDDSICTGTFSGNQVNLTIRGLRAMDTGLYICEVELMYPPPYYLGIGNGTQIYVIDPEPSPDSD
# modifications: 35S-labelled methionine
# B2: CTLA-4 variant Var 2 (SEQ ID 6), monomeric form with serine at position 121, translated in vitro (receptor)
# chain: B1 chain with S43G, T46S, W49C, P62L
# modifications: 35S-labelled methionine
# B3: CTLA-4 variant Var 1 (SEQ ID 5), monomeric form with serine at position 121, translated in vitro (receptor)
# chain: B1 chain with I17T, W49Y, F61S, P62L, R81Q
# modifications: 35S-labelled methionine
# What was measured:
# B7-1 on Raji cells = B7-1 on Raji cells (UniProt P33681); test: cell-based or functional assay; set-up: unit not given beside the values
# B7-2 on Raji cells = B7-2 on Raji cells (UniProt P42081); test: cell-based or functional assay; set-up: unit not given beside the values
# [1] = molecular target: T1, B7-1 coated on the plate of the stability RIA (human, UniProt P33681 35-242); test: stability RIA: 35S-labelled in vitro translated CTLA-4 on a plate coated with B7-1, non-reducing conditions
# T1 construct: also called human B7-1 (RnD Systems, 140-B1)
# T1 sequence (looked up): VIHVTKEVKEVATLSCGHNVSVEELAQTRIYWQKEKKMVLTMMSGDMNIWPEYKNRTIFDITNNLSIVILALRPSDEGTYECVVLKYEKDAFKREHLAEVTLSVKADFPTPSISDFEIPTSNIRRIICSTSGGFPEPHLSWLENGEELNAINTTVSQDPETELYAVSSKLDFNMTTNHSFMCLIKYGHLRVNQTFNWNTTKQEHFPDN
# Procedure: (§1) CTLA-4 variants were screened for stability using the primary stability RIA (radio immunoassay) as described in Jermutus et al., (2001). In brief for each variant a linear DNA template was amplified, transcribed, the mRNA purified on G25 Sephadex® columns and quantified. For each variant in vitro translations in the presence of ³⁵S-labelled methionine were set up in duplicate at 30° C. for 30 min, one in non-reducing conditions and one in 10 mM DTT (dithiothreitol). The translations were stopped with PBS with 0.050 Tween 20, with DTT at the same concentration as the translations. The translation mixture was incubated on a plate coated with B7-1 for 1 hour at room temperature. Plates were washed three times in PBS with 0.05% Tween 20® and three times in PBS. The remaining radioactivity was eluted with 0.1 M triethylamine and quantified by liquid scintillation counting. A measure of the variants' stability was calculated as the percentage residual binding i.e. binding signal in presence of DTT, divided by binding signal in absence of DTT, multiplied by 100.
# [2] = molecular target: T1, B7-1 coated on the plate of the …; test: stability RIA: 35S-labelled in vitro translated CTLA-4 on a plate coated with B7-1, 10 mM DTT against no DTT
# Procedure: as §1
# Sequence of B7-2 on Raji cells (P42081 24-329 limits assumed): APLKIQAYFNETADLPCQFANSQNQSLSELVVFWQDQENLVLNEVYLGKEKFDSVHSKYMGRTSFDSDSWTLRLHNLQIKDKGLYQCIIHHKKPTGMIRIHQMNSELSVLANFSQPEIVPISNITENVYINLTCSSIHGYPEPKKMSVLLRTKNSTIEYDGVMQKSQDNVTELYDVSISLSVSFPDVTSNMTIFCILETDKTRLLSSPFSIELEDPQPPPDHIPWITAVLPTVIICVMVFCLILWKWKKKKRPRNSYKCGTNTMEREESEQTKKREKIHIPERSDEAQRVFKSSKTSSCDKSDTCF
Molecule,"EC50, inhibition of IL-2 production in the Jurkat and Raji dual cell assay (B7-1 and B7-2 both free) (B7-1 on Raji cells)","EC50, inhibition of IL-2 production in the Jurkat and Raji dual cell assay (B7-1 and B7-2 both free) (B7-2 on Raji cells)","Signal DTT- (RIA signal after non-reducing conditions, signal over background) [1] [signal over background]","% Residual Binding (signal in 10 mM DTT divided by signal without DTT, times 100) [2] [%]"
"CTLA-4 human wild-type (SEQ ID NO: 8), CTLA-4-Fc form (from UniProt P16410 37-161) (Fc fusion; in M (unit assumed))",1.27e-08,1.27e-08,,
B1,,,13.2,75
B2,,,29.8,11
B3,,,2.6,55
